Consider two molecules from PMC6028617, “ADP-Dependent Kinases From the Archaeal Order Methanosarcinales Adapt to Salt by a Non-canonical Evolutionarily Conserved Strategy” (Frontiers in Microbiology, 2018).

For orientation: Km means the substrate concentration at which the rate is half of its maximum. What is called kcat is the number of substrate molecules converted per active site and unit of time at saturation. The term kcat/Km denotes the second-order rate constant that governs catalysis at low substrate concentration.

In one series the target is T1, AncMsPFK/GK (synthetic construct, UniProt Z9Y5W3ZEF0).
T1 construct: heat step 80 C, Ni-Sepharose
T1 sequence (Z9Y5W3ZEF0 22-511): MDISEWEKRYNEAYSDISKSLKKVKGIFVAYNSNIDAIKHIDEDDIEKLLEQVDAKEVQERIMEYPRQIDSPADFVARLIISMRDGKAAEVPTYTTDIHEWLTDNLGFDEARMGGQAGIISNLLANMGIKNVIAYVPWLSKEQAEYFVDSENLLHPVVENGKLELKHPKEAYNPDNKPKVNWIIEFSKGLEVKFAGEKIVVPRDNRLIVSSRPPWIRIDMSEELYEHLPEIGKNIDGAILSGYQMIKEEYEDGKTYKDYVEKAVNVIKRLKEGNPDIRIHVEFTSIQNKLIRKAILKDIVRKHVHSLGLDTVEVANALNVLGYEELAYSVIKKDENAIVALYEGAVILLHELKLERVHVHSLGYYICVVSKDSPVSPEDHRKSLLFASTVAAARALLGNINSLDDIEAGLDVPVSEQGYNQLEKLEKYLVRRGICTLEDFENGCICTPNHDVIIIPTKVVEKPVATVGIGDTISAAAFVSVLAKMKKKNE
Kind of series: X-ray crystal structure, […] Å. The series is classed as binding. The settings on record: Mg2+ in active site; Ni2+ at three surface sites; crystals pH 4.5.

Substrate in the series “purified protein”: Nc1ncnc2c1ncn2[C@@H]1O[C@H](COP(=O)(O)OP(=O)(O)O)[C@@H](O)[C@H]1O
Kind of series: purified protein. To be noted: PFK activity, saturating fructose-6P, 25 mM PIPES pH 6.5, 40 C, as Mg-ADP. The class given is biochemical, Methanosarcina mazei.

For the molecule `Nc1ncnc2c1ncn2[C@@H]1O[C@H](COP(=O)(O)OP(=O)(O)O)[C@@H](O)[C@H]1O` [ADP], the “X-ray crystal structure, 2.86 Å” value at AncMsPFK/GK is recorded as “crystals for the ancMsPFK/GK in complex with ADP, which was solved by molecular replacement”.

B1: MmazPFK/GK (Methanosarcina mazei Go1) (protein)
chain: MDMEEWEQRHNEAFYDAKEALPYLDGMFVAYNSNIDAIRHLDEEALTKLIGFFDEAEIQERVAVYPREIADPLDFIARLLIAMREGKAAEVPTYTEEIHTWLKEHLGFDYARMGGQAGIISNLLARLDLKKVVAYIPWLSAEQAEYFEDNGNILHPKVENGEVVLKTPAEAFNPGMGSKVNWIFEFSKDLKVSCAGSTFKVPRDNRLIISSRPKWIRLDMDRAIYDQLETIFPVDGAMLSGYQMIKEEYEDGSTYKDYVEHSVEVINKLKSLNPDLRIHVELTSIQNRVIRKAILTEIVARHVHSLGLDTVEVANALNVLGYEELSYSVIRKGENGIMSLYQGAVQLMKDLKLERVHVHSLGFYICILAKGHPLTLKEHRDALLFSSVLAASRALHGKIEDLNEAETGLDVPVSAQGLEDLETFKLYCTGRKLCSPDEFEYGYIYGSDHDAILIPSKVVDRPKATVGIGDTISAGAFAAMLARMKQIKSGK
notes: de novo codon-optimized gene in pET-15b, N-terminal poly-His tag, E. coli C41; heat step 50 C, Ni-NTA, HiTrap-Q
As to B1, in the series “purified protein”, the Michaelis constant (Km) was 72 ± 9 µM, the turnover number (kcat) was determined as 6.1 ± 0.3 s⁻¹ and the specificity constant (kcat/Km) is 84500 M⁻¹ s⁻¹.
